Measured values published in article PMC8325564.

Substrate: Nc1nc2c(ncn2[C@@H]2O[C@H](COP(=O)(O)OP(=O)(O)OP(=O)(O)O)[C@@H](O)[C@H]2O)c(=O)[nH]1
Assay: coupled enzymatic assay of AK3 activity
Assay type: biochemical, human
Conditions: other: GTP as varied substrate, 300 μM AMP, 2 mM MgCl2

B1: human AK3 (Homo sapiens) (protein)
chain: MGASARLLRAVIMGAPGSGKGTVSSRITTHFELKHLSSGDLLRDNMLRGTEIGVLAKAFIDQGKLIPDDVMTRLALHELKNLTQYSWLLDGFPRTLPQAEALDRAYQIDTVINLNVPFEVIKQRLTARWIHPASGRVYNIEFNPPKTVGIDDLTGEPLIQREDDKPETVIKRLKAYEDQTKPVLEYYQKKGVLETFSGTETNKIWPYVYAFLQTKVPQRSQKASVTP
  Km: 10 ± 1.5 µM
  kcat/Km: 5.7e+06 ± 900000 M⁻¹ s⁻¹
